Our source for the amyloid nucleation score values is the supplement of paper PMC12042874.

± gives the uncertainty stated by the source.

This data set in a line: amyloid nucleation score (Sup35N fusion, yeast selection) (log enrichment); library NNK3; higher = more nucleation; inactive = no reads after selection. The method in brief: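 Sup35N fusions to peptides of 20 random codons were expressed in psi-negative yeast, induced 24 hours with 100 μM copper sulfate, and grown 7 days at 30°C on medium lacking adenine and uracil. Input and output plasmid inserts were sequenced by Illumina. The nucleation score is the DiMSum log enrichment of output over input reads, centred on the mode score of non-aggregating sequences. Sequences with under 100 input reads were excluded.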
As to CSLVLSESPFGNI, the amyloid nucleation score entry is “inactive”.

Consider CSMPFTSSEKLGKCGNDAPF, for which the amyloid nucleation score result is “inactive”.

As for CSRLPVHRFIP, the amyloid nucleation score entry is “inactive”.

On to CSSQTIRGTDKSHDVLAKLL, for which the amyloid nucleation score entry was “inactive”.

With CSSSRVWVHKHYGTYRHFIL, the amyloid nucleation score result was “inactive”.

As for CTAILAVMSIGNFFNRLDLN, the amyloid nucleation score result is “inactive”.

As to CTCFRGSTFRNAYN, the amyloid nucleation score entry was “inactive”.

For CTHLLFCPMGRVSTCSLKME, the amyloid nucleation score entry was “inactive”.

Take CTHVLRNWGIKNGP: the amyloid nucleation score result was “inactive”.

As for CTRSVSILESLRDSNTSLSQ, the amyloid nucleation score entry is “inactive”.

Turning to CTTRMCNGLWNARLRGTTSP, the amyloid nucleation score entry was “inactive”.

Turning to CTYIVHATVEPVYDNDLLKW, the amyloid nucleation score entry was “inactive”.

In the case of CTYLAVVTMMDEELWGIRWN, the amyloid nucleation score result was “inactive”.

Regarding CVDVSGLFGNIMEVILVMSW, the amyloid nucleation score result is “inactive”.

For the substance CVLSSRF, the amyloid nucleation score entry was “inactive”.

Consider CVMGIRIHPFVVYNGQGGTS, for which the amyloid nucleation score entry was “inactive”.

As to CVMLVAVQGR, the amyloid nucleation score result was “inactive”.

As for CVNMLRKTVIYFLHFPAYYR, the amyloid nucleation score entry is “inactive”.

For the substance CVNTHRY, the amyloid nucleation score result was “inactive”.

In the case of CVQRVREYVGT, the amyloid nucleation score result was “inactive”.

Consider CVRYSRSGWVCDTGRLKDPC, for which the amyloid nucleation score entry is “inactive”.

With CVSIGVVMCFCKSRFAITFV, the amyloid nucleation score result is “inactive”.

Turning to CVSRICVWPRYETTGFYAST, the amyloid nucleation score result was “inactive”.

In turn, CVTFFVISTHPHSCSLSN had an amyloid nucleation score of 2.42 ± 0.083.

With CVTGVSLPGNRISG, the amyloid nucleation score result was “inactive”.

As for CVTRDDLCYW, the amyloid nucleation score result was “inactive”.

Regarding CVYNRLNMF, the amyloid nucleation score is -0.296 ± 0.28.

In the case of CWADSDSVSKKSRIA, the amyloid nucleation score entry is “inactive”.

With CWAYF, the amyloid nucleation score entry is “inactive”.

With CWFLVTMGYAGCFFSPVTQL, the amyloid nucleation score result is “inactive”.

CWIAMCGVVFNDLRMS displayed an amyloid nucleation score of 2.81 ± 0.071.

For the substance CWLPFVCCAQCLNRIDVVSR, the amyloid nucleation score turned out to be 2.32 ± 0.066.

For the substance CWNDSLLCYMSSTMGNVQTT, the amyloid nucleation score entry was “inactive”.

On to CWVRIVAICMGFW, for which the amyloid nucleation score entry is “inactive”.

Turning to CYFLQ, the amyloid nucleation score entry is “inactive”.

Turning to CYGKLDGMTNDEEGTPVFAN, the amyloid nucleation score result was “inactive”.

CYGLSRCTRAEAMCPKG: the amyloid nucleation score result is “inactive”.

Turning to CYIYLSMQYGEHANDIICLW, the amyloid nucleation score entry is “inactive”.

Regarding CYKMNVMT, the amyloid nucleation score result is “inactive”.

Turning to CYQVWPARLSILHARLLGGR, the amyloid nucleation score result is “inactive”.

For the substance CYRISSESWSTWWIYFWSCR, the amyloid nucleation score entry was “inactive”.

On to CYWKLYCGNEYYGVSFMGVL, for which the amyloid nucleation score entry was “inactive”.

As for CYYDEVFAFLSLMTFRIQNK, the amyloid nucleation score result was “inactive”.

With DALRL, the amyloid nucleation score result is “inactive”.

The substance DANWDTLIFLSSRMNAWRYK gave an amyloid nucleation score of 1.86 ± 0.077.

Take DCALAAGMK: the amyloid nucleation score result is “inactive”.

With DCCSYRSERA, the amyloid nucleation score entry is “inactive”.

As for DCFFRSVDLADSR, the amyloid nucleation score entry is “inactive”.

With DCFSGIGCSRRKT, the amyloid nucleation score entry was “inactive”.

Take DCGKWNLWSQPLGTG: the amyloid nucleation score entry was “inactive”.

Turning to DCMNGLVCFFMMCRGSLIRD, the amyloid nucleation score result was “inactive”.

Regarding DCPLNNVTSLSHP, the amyloid nucleation score entry was “inactive”.

On to DCSGG, for which the amyloid nucleation score result was “inactive”.

As to DDCQFSDNRRFKSVPSYSQR, the amyloid nucleation score entry is “inactive”.

DDGSKCLLSSMMFVNLVTYC: the amyloid nucleation score entry is “inactive”.

As to DDYLPMISPFRCYSQFKYIS, the amyloid nucleation score entry is “inactive”.

On to DENVRLTL, for which the amyloid nucleation score result is “inactive”.

In turn, DFDAC had an amyloid nucleation score of 0.021 ± 0.52.

Consider DFDLLSFIRSDVIPCVCSKG, for which the amyloid nucleation score entry was “inactive”.

Regarding DFELFSSALGSLSNGHSENV, the amyloid nucleation score result is “inactive”.

On to DFEVR, for which the amyloid nucleation score result was “inactive”.

Turning to DFFLRVMYMKWNAPL, the amyloid nucleation score entry is “inactive”.

As to DFGFWLVDVGWGPLLRYVAD, the amyloid nucleation score entry is “inactive”.

With DFKDCDICTTPNDKVESGKV, the amyloid nucleation score entry is “inactive”.

For DFLLATDQVGYKDLDLGTKV, the amyloid nucleation score result is “inactive”.

For DFLYRGMNGSGFPLCIYQRC, the amyloid nucleation score entry is “inactive”.

On to DFRRANGEYWLTAAPMLIHT, for which the amyloid nucleation score worked out at 0.396 ± 0.28.

DFRRTGLCIREWSSWRIMKL: the amyloid nucleation score result is “inactive”.

Consider DFSTDTHWKVWW, for which the amyloid nucleation score came out at 0.566 ± 0.43.

DFVRSNNCYWCFAAFSPCFR: the amyloid nucleation score result was “inactive”.

Take DFVTHWSVAMLMI: the amyloid nucleation score entry is “inactive”.

Regarding DFYFRVIVVGGHCVSDTSFL, the amyloid nucleation score result was “inactive”.

For the substance DFYLDLITLDNRTTSSTSML, the amyloid nucleation score entry was “inactive”.

On to DGAEDCRS, for which the amyloid nucleation score is -1.03 ± 2.5.

Take DGCALSMPNYAGNQVVKQRG: the amyloid nucleation score entry was “inactive”.

As for DGDIVQCSSLCKVSGFLFTS, the amyloid nucleation score entry was “inactive”.

For DGEASTRVSCGDDIFRKTSS, the amyloid nucleation score was 1.03 ± 0.16.

As to DGLSLPPMMVNRVQTATQSR, the amyloid nucleation score entry was “inactive”.

Consider DGMTKFRWSCVRWVCG, for which the amyloid nucleation score result was “inactive”.

Consider DHRNVRRLKVRLTECIE, for which the amyloid nucleation score entry was “inactive”.

Consider DIQVFLTSSLQFIAEISVGG, for which the amyloid nucleation score result was “inactive”.

DIRYLISSTRYLDVMEGFLV: the amyloid nucleation score entry is “inactive”.

Consider DKALS, for which the amyloid nucleation score result was “inactive”.

As to DKEDHLSVFWAV, the amyloid nucleation score result was “inactive”.

Consider DKRFELNRALLTVPWDQNRA, for which the amyloid nucleation score result is “inactive”.

With DKSLFKII, the amyloid nucleation score entry was “inactive”.

In the case of DKYFVAASWFRWVLVYMGWS, the amyloid nucleation score result was “inactive”.

DLNIIRISAYLCLANCFPST: the amyloid nucleation score came out at 2.37 ± 0.054.

DLNRYSWSRKRRLCCSHCRG: the amyloid nucleation score entry is “inactive”.

For DLQFGVGVTASPAAYCRYLS, the amyloid nucleation score entry is “inactive”.

For DLQYLMLHVHNFYICDRYQP, the amyloid nucleation score entry was “inactive”.

As to DLVRAMRCHSVGDVGYASSS, the amyloid nucleation score entry is “inactive”.

DMDDHPDYHRNTND: the amyloid nucleation score result was “inactive”.

As for DMFNLNLFGLLNCLGVMEET, the amyloid nucleation score came to 1.31 ± 0.072.

As to DMGTTCPSCSKRLAGQGKAA, the amyloid nucleation score result was “inactive”.

For the substance DMMYVIRIFFLATEYSSLHP, the amyloid nucleation score entry was “inactive”.

Consider DMSPRMTLSIKSA, for which the amyloid nucleation score entry was “inactive”.

On to DNDVHKELFSPAASLSSTWS, for which the amyloid nucleation score result was “inactive”.

Turning to DNHVVKVQL, the amyloid nucleation score entry is “inactive”.

Turning to DPGHGS, the amyloid nucleation score entry was “inactive”.

Turning to DPYFVG, the amyloid nucleation score result was “inactive”.

For the substance DQAYWKQCSMSIWYGFRRLV, the amyloid nucleation score result is “inactive”.

On to DQMTHFYYPRNRPRFAISLA, for which the amyloid nucleation score result is “inactive”.

In the case of DRCWMCLEAALQVAACVGSG, the amyloid nucleation score result was “inactive”.

On to DRFFTSFSVCSPNDDKGLL, for which the amyloid nucleation score entry was “inactive”.

Take DRGVLFRHIILGSPHIMNRV: the amyloid nucleation score result was “inactive”.

With DRISGFVIKYNFNLSFSEMW, the amyloid nucleation score came to 0.52 ± 0.17.

DRKLLYY: the amyloid nucleation score entry is “inactive”.

As to DRPSWNMRSLNFSGQSVR, the amyloid nucleation score was -0.59 ± 1.4.

As to DRRNNVRFVVLFSRRYCGQA, the amyloid nucleation score result is “inactive”.

Consider DRSDNRSGYFMINVVYNDGE, for which the amyloid nucleation score was found to be 0.724 ± 0.18.

Consider DRVCSSRML, for which the amyloid nucleation score result is “inactive”.

As for DRVDIRATADELGLR, the amyloid nucleation score entry was “inactive”.

On to DSCAIES, for which the amyloid nucleation score entry was “inactive”.

Regarding DSCTDEENM, the amyloid nucleation score entry is “inactive”.

Turning to DSFVLYALCNYWCSFCIKGA, the amyloid nucleation score came out at 1.8 ± 0.09.

DSIRLLLALPH: the amyloid nucleation score result was “inactive”.

The substance DSISCCSPNITAYEFYGLTG showed an amyloid nucleation score of 2.06 ± 0.066.

DSKSSYK: the amyloid nucleation score result is “inactive”.

For DSMLVISVRVRTCMLGNVVA, the amyloid nucleation score result is “inactive”.

For DSSKWHAMYMLTKMKMTGWL, the amyloid nucleation score result was “inactive”.

On to DSSPVPKGYNRVRPLVNLAV, for which the amyloid nucleation score entry is “inactive”.

Regarding DSVNRCFARGILSCLVCL, the amyloid nucleation score entry is “inactive”.

For the substance DSVRASSLLWMFWCIVEFHG, the amyloid nucleation score entry was “inactive”.

Take DSWHFFCFIMVCIVKYWFFA: the amyloid nucleation score result is “inactive”.

Substance DSYSIILCFHKNKLLVLLSP yielded an amyloid nucleation score of 0.156 ± 0.42.

Consider DTNGMMRAMLRYPIIRFLYA, for which the amyloid nucleation score is -0.402 ± 0.63.

As to DTRVGP, the amyloid nucleation score entry is “inactive”.

With DTSGSCSILTRSRNMSFWRR, the amyloid nucleation score entry was “inactive”.

DTSTSMFRRVMEATVSTSLL: the amyloid nucleation score entry is “inactive”.

As for DTSVYFQSSTCCAKKSGHKP, the amyloid nucleation score result was “inactive”.
